± gives the uncertainty stated by the source.
Assay: self-splicing fitness, log relative to wild type (ln ratio); higher = more splicing; Tetrahymena group I intron in knt gene, E. coli kanamycin selection, DiMSum; sequences stand for … in CUCUCU…GGAGGGAAAAGUUAUCAGGCAUGCACCUGGUAGCUAGUCUUUAAACCAAUAGAUUGCAUCGGUUUAAAAGGCAAGACCGUCAAAUUGCGGGAAAGGGGUCAACAGCCGUUCAGUACCAAGUCUCAGGGGAAACUUUGAGAUGGCCUUGCAAAGGGUAUGGUAAUAAGCUGACGGACAUGGUCCUAACCACGCAGCCAAGUCCUAAGUCAACAGAUCUUCUGUUGAUAUGGAUGCAGUUCACAGACUAAAUGUCGGUCGGGGAAGAUGUAUUCUUCUCAUAAGAUAUAGUCGGACCUCUCCUUAAUGGGAGCUAGCGGAUGAAGUGAUGCAACACUGGAGCCGCUGGGAACUAAUUUGUAUGCGAAAGUAUAUUGAUUAGUUUUGGAGUACUCGUGGUCG
Method in brief: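 Library with all eight P1ex-region intron nucleotides randomised, intron inside the knt kanamycin-resistance gene on pET-22b(+), in E. coli BL21(DE3). Cells grew overnight at 37°C or 30°C on LB agar with or without 25 μg/mL kanamycin (plus 100 μg/mL carbenicillin, 50 μM IPTG, 0.2% rhamnose), in six replicate transformations. Pooled colonies were amplicon-sequenced on Illumina HiSeq 2500. DiMSum fitness is the error-weighted combination of wild-type-normalised replicate fold changes, kanamycin versus none.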

| Sequence | self-splicing fitness (ln) (30 °C) | self-splicing fitness (ln) (37 °C) |
| --- | --- | --- |
| CUCUAGCAAUAUUACGUGGC | -3.7 ± 0.22 | -2.82 ± 0.24 |
| CUCUAGCAAUAUUACGUGUA | -3.62 ± 0.21 | -4.02 ± 0.27 |
| CUGAAGCAAUAUUACGACAA | -0.913 ± 0.13 | 0.0189 ± 0.19 |
| CUGAAGCAAUAUUACGACAG | -0.755 ± 0.063 | 0.511 ± 0.11 |
| CUGAAGCAAUAUUACGAGAA | -3.29 ± 0.3 |  |
| CUGAAGCAAUAUUACGCAAU | -3.09 ± 0.24 | -2.67 ± 0.36 |
| CUGAAGCAAUAUUACGCAGA | -3.67 ± 0.19 | -2.71 ± 0.21 |
| CUGAAGCAAUAUUACGCCGC | -3.17 ± 0.35 |  |
| CUGAAGCAAUAUUACGCGUC | -3.62 ± 0.33 | -3.55 ± 0.35 |
| CUGAAGCAAUAUUACGGAUA | -4.19 ± 0.22 | -1.19 ± 0.18 |
| CUGAAGCAAUAUUACGGCUA | -3.03 ± 0.25 | -1.22 ± 0.25 |
| CUGAAGCAAUAUUACGGUCC | -3.78 ± 0.34 | -2.38 ± 0.46 |
| CUGAAGCAAUAUUACGGUCG | 0.651 ± 0.072 | -0.32 ± 0.082 |
| CUGAAGCAAUAUUACGGUUU | -3.24 ± 0.22 | -2.72 ± 0.18 |
| CUGAAGCAAUAUUACGUAGA | -4.28 ± 0.34 | -1.75 ± 0.27 |
| CUGAAGCAAUAUUACGUAUG | -0.151 ± 0.056 | -0.154 ± 0.068 |
| CUGAAGCAAUAUUACGUGCG | 0.0994 ± 0.061 | -0.325 ± 0.073 |
| CUGAAGCAAUAUUACGUGGU | -3.3 ± 0.15 | -1.41 ± 0.18 |
| CUGAAGCAAUAUUACGUGUU | -3.7 ± 0.14 | -2.13 ± 0.17 |
| CUGAAGCAAUAUUACGUUUG | -1.52 ± 0.061 | -1.23 ± 0.099 |
| CUGCAGCAAUAUUACGAAGC | -2.78 ± 0.28 | -2.6 ± 0.28 |

| Sequence | self-splicing fitness (ln) (30 °C) | self-splicing fitness (ln) (37 °C) |
| --- | --- | --- |
| CUGCAGCAAUAUUACGACCG | 0.161 ± 0.088 | 0.198 ± 0.12 |
| CUGCAGCAAUAUUACGAGCC | -2.9 ± 0.31 |  |
| CUGCAGCAAUAUUACGAUAC | -2.99 ± 0.34 |  |
| CUGCAGCAAUAUUACGAUAU | -3.64 ± 0.28 | -2.41 ± 0.3 |
| CUGCAGCAAUAUUACGAUGC | -3.13 ± 0.24 | -1.92 ± 0.43 |
| CUGCAGCAAUAUUACGCAGA | -2.32 ± 0.31 | -2.97 ± 0.38 |
| CUGCAGCAAUAUUACGCUAC | -4.2 ± 0.36 | -2.17 ± 0.16 |
| CUGCAGCAAUAUUACGCUCG | -2.3 ± 0.16 | -0.671 ± 0.16 |
| CUGCAGCAAUAUUACGGAAA | -2.27 ± 0.21 | -1.56 ± 0.38 |
| CUGCAGCAAUAUUACGGAGU | -3.05 ± 0.14 | -1.65 ± 0.13 |
| CUGCAGCAAUAUUACGGAUC |  | -2.38 ± 0.21 |
| CUGCAGCAAUAUUACGGCAG | -2.63 ± 0.22 | -2.27 ± 0.2 |
| CUGCAGCAAUAUUACGGCUC | -2.57 ± 0.22 | -2.96 ± 0.43 |
| CUGCAGCAAUAUUACGGGCA | -3.01 ± 0.17 | -1.06 ± 0.14 |
| CUGCAGCAAUAUUACGGGUU | -3.86 ± 0.17 | -2.74 ± 0.14 |
| CUGCAGCAAUAUUACGUCAG | -3.61 ± 0.28 | -2.08 ± 0.21 |
| CUGCAGCAAUAUUACGUCAU | -2.86 ± 0.14 | -2.06 ± 0.13 |
| CUGCAGCAAUAUUACGUCCG | -0.43 ± 0.094 | 0.136 ± 0.13 |
| CUGCAGCAAUAUUACGUCGU | -4.05 ± 0.25 | -3.44 ± 0.25 |
| CUGCAGCAAUAUUACGUGCU | -4.44 ± 0.23 | -2.54 ± 0.19 |
| CUGCAGCAAUAUUACGUUCU | -2.88 ± 0.21 | -1.88 ± 0.2 |

| Sequence | self-splicing fitness (ln) (30 °C) | self-splicing fitness (ln) (37 °C) |
| --- | --- | --- |
| CUGCAGCAAUAUUACGUUUA | -2.64 ± 0.19 | -1.21 ± 0.19 |
| CUGGAGCAAUAUUACGAAUA | -3.07 ± 0.4 | -2.15 ± 0.47 |
| CUGGAGCAAUAUUACGACCA | -1.68 ± 0.31 | -1.61 ± 0.38 |
| CUGGAGCAAUAUUACGAGCU |  | -1.66 ± 0.46 |
| CUGGAGCAAUAUUACGAGGA | -3.18 ± 0.33 |  |
| CUGGAGCAAUAUUACGAUAG | -2.16 ± 0.25 | -1.38 ± 0.22 |
| CUGGAGCAAUAUUACGCAUA |  | -2.22 ± 0.37 |
| CUGGAGCAAUAUUACGCCUA | -1.84 ± 0.36 | -1.44 ± 0.32 |
| CUGGAGCAAUAUUACGCCUG | -1.22 ± 0.22 | -1.39 ± 0.28 |
| CUGGAGCAAUAUUACGCGAC | -0.944 ± 0.27 | -1.84 ± 0.36 |
| CUGGAGCAAUAUUACGCUUG | -3.94 ± 0.34 | -2.35 ± 0.45 |
| CUGGAGCAAUAUUACGGAAA | -2.47 ± 0.33 | -2.78 ± 0.35 |
| CUGGAGCAAUAUUACGGACA | -3.7 ± 0.43 | -2.45 ± 0.46 |
| CUGGAGCAAUAUUACGGCCA |  | -1.99 ± 0.24 |
| CUGGAGCAAUAUUACGGGAA | -2.68 ± 0.31 | -2.36 ± 0.27 |
| CUGGAGCAAUAUUACGGGAU | -4.01 ± 0.37 | -1.91 ± 0.28 |
| CUGGAGCAAUAUUACGUGAG | -0.772 ± 0.049 | -0.213 ± 0.063 |
| CUGGAGCAAUAUUACGUGGG | -3.7 ± 0.2 | -2.52 ± 0.26 |
| CUGGAGCAAUAUUACGUGUA | -3.32 ± 0.32 | -1.57 ± 0.37 |
| CUGGAGCAAUAUUACGUGUG | -1.53 ± 0.11 | -0.75 ± 0.13 |
| CUGGAGCAAUAUUACGUGUU | -3.3 ± 0.16 | -3.31 ± 0.21 |

| Sequence | self-splicing fitness (ln) (30 °C) | self-splicing fitness (ln) (37 °C) |
| --- | --- | --- |
| CUGUAGCAAUAUUACGACAA | -0.568 ± 0.11 | 0.0313 ± 0.11 |
| CUGUAGCAAUAUUACGACCA | -1.45 ± 0.38 |  |
| CUGUAGCAAUAUUACGACUA | -1.74 ± 0.42 | -0.817 ± 0.3 |
| CUGUAGCAAUAUUACGAGGC | -3.31 ± 0.37 | -3.04 ± 0.32 |
| CUGUAGCAAUAUUACGAGUC |  | -2.05 ± 0.31 |
| CUGUAGCAAUAUUACGAUUU |  | -2.62 ± 0.36 |
| CUGUAGCAAUAUUACGCACA | -2.05 ± 0.13 | -1.19 ± 0.16 |
| CUGUAGCAAUAUUACGCGAG | -3.06 ± 0.29 | -2.13 ± 0.25 |
| CUGUAGCAAUAUUACGCGUA | -3.3 ± 0.3 | -2.89 ± 0.25 |
| CUGUAGCAAUAUUACGCUUG | -2.62 ± 0.14 | -2.02 ± 0.16 |
| CUGUAGCAAUAUUACGGCCC |  | -0.731 ± 0.38 |
| CUGUAGCAAUAUUACGGCCU |  | -3.02 ± 0.34 |
| CUGUAGCAAUAUUACGGCUA |  | -1.51 ± 0.39 |
| CUGUAGCAAUAUUACGGGGG | -4.4 ± 0.37 | -2.68 ± 0.31 |
| CUGUAGCAAUAUUACGUAUC | -4.3 ± 0.47 | -1.57 ± 0.38 |
| CUGUAGCAAUAUUACGUAUG | -0.387 ± 0.11 | -0.224 ± 0.16 |
| CUGUAGCAAUAUUACGUCGG | -3.47 ± 0.2 | -1.87 ± 0.18 |
| CUGUAGCAAUAUUACGUGCA | -2.56 ± 0.18 | -2.5 ± 0.16 |

Reference: the supplement of paper PMC7877785
